Data from patent US20210130436A1 (published 2021).
Numbering of substitutions follows the chain as printed. Names and notes keep the numbering of the source.

T1: CD226 (Homo sapiens (Human), UniProt Q15762 19-336)
T1 sequence: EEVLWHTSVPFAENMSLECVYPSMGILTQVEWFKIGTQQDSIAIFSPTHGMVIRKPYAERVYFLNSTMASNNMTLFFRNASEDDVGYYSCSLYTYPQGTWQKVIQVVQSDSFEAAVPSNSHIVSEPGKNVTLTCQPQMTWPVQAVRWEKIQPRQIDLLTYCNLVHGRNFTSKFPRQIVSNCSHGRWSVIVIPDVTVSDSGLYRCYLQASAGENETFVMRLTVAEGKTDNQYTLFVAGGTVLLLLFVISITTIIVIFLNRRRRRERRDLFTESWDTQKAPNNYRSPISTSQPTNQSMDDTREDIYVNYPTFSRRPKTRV

T2: CD96 (UniProt P40200 22-585, limits assumed)
T2 construct: whole, on cells
T2 sequence (looked up): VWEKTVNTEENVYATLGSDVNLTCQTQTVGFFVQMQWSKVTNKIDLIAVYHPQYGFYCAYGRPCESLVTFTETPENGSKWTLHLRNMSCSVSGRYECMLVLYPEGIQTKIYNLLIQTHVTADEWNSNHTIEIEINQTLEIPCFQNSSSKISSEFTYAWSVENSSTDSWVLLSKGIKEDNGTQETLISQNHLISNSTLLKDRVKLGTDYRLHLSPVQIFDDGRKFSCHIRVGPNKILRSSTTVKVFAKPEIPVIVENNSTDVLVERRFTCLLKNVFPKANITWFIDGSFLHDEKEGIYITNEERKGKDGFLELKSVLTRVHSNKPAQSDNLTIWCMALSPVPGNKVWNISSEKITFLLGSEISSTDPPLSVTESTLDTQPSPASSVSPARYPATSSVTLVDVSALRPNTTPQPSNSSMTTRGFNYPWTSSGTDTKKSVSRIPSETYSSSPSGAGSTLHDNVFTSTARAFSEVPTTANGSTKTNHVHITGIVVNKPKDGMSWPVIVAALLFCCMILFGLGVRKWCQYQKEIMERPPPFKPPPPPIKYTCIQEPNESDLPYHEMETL

B1: variant CD80 IgV-Fc M47L (Fc fusion, not shown: small tags and cut ends; a dimerising Fc or GST)
chain: VIHVTKEVKEVATLSCGHNVSVEELAQTRIYWQKEKKMVLTMMSGDLNIWPEYKNRTIFDITNNLSIVILALRPSDEGTYECVVLKYEKDAFKREHLAEVTLSVKAD
B2: variant CD80 IgV-Fc D46V/V68M (Fc fusion, not shown: small tags and cut ends; a dimerising Fc or GST)
chain: B1 chain with D46V, L47M, V68M
B3: variant CD80 IgV-Fc L85Q (Fc fusion, not shown: small tags and cut ends; a dimerising Fc or GST)
chain: B1 chain with L47M, L85Q
B4: variant CD80 IgV-Fc D46V/M47L/V68M (Fc fusion, not shown: small tags and cut ends; a dimerising Fc or GST)
chain: B1 chain with D46V, V68M
B5: variant CD80 IgV-Fc E35D (Fc fusion, not shown: small tags and cut ends; a dimerising Fc or GST)
chain: B1 chain with E35D, L47M
B6: variant CD80 IgV-Fc M47L/L85Q (Fc fusion, not shown: small tags and cut ends; a dimerising Fc or GST)
chain: B1 chain with L85Q
B7: variant CD80 IgV-Fc D46V/M47L/L85Q (Fc fusion, not shown: small tags and cut ends; a dimerising Fc or GST)
chain: B1 chain with D46V, L85Q
B8: variant CD80 IgV-Fc E35D/D46V/L85Q (Fc fusion, not shown: small tags and cut ends; a dimerising Fc or GST)
chain: B1 chain with E35D, D46V, L47M, L85Q
B9: variant CD80 IgV-Fc D46V/L85Q (Fc fusion, not shown: small tags and cut ends; a dimerising Fc or GST)
chain: B1 chain with D46V, L47M, L85Q
B10: variant CD80 IgV-Fc E35D/D46V/M47L/V68M (Fc fusion, not shown: small tags and cut ends; a dimerising Fc or GST)
chain: B1 chain with E35D, D46V, V68M
B11: variant CD80 IgV-Fc E35D/D46V (Fc fusion, not shown: small tags and cut ends; a dimerising Fc or GST)
chain: B1 chain with E35D, D46V, L47M
B12: variant CD80 IgV-Fc D46V/M47L/V68M/L85Q (Fc fusion, not shown: small tags and cut ends; a dimerising Fc or GST)
chain: B1 chain with D46V, V68M, L85Q
B13: variant CD80 IgV-Fc E35D/D46V/V68M (Fc fusion, not shown: small tags and cut ends; a dimerising Fc or GST)
chain: B1 chain with E35D, D46V, L47M, V68M
B14: variant CD80 IgV-Fc D46V/M47L (Fc fusion, not shown: small tags and cut ends; a dimerising Fc or GST)
chain: B1 chain with D46V
B15: variant CD80 IgV-Fc E35D/D46V/M47L (Fc fusion, not shown: small tags and cut ends; a dimerising Fc or GST)
chain: B1 chain with E35D, D46V
B16: variant CD80 IgV-Fc D46V/V68M/L85Q (Fc fusion, not shown: small tags and cut ends; a dimerising Fc or GST)
chain: B1 chain with D46V, L47M, V68M, L85Q
B17: variant CD80 IgV-Fc E35D/D46V/V68M/L85Q (Fc fusion, not shown: small tags and cut ends; a dimerising Fc or GST)
chain: B1 chain with E35D, D46V, L47M, V68M, L85Q
B18: variant CD80 IgV-Fc Q33R/E35D/K37E/M47V/L85Q (Fc fusion, not shown: a dimerising Fc or GST)
chain: B1 chain with Q33R, E35D, K37E, L47V, L85Q
B19: variant CD80 IgV-Fc Q33K/E35D/M47V/K89E/K93R (Fc fusion, not shown: a dimerising Fc or GST)
chain: B1 chain with Q33K, E35D, L47V, K89E, K93R
B20: variant CD80 IgV-Fc Q27H/E35D/M47L/L85Q/R94Q/E95K (Fc fusion, not shown: a dimerising Fc or GST)
chain: B1 chain with Q27H, E35D, L85Q, R94Q, E95K
B21: variant CD80 IgV-Fc E35D/M47I/K54R/L85E (Fc fusion, not shown: a dimerising Fc or GST)
chain: B1 chain with E35D, L47I, K54R, L85E
B22: variant CD80 IgV-Fc S15P/Q33L/E35D/M47L/L85Q (Fc fusion, not shown: a dimerising Fc or GST)
chain: B1 chain with S15P, Q33L, E35D, L85Q
B23: variant CD155 IgV-Fc S42C/S52L (Fc fusion, not shown: a dimerising Fc or GST)
chain: WPPPGTGDVVVQAPTQVPGFLGDSVTLPCYLQVPNMEVTHVCQLTWARHGELGSMAVFHQTQGPSYSESKRLEFVAARLGAELRNASLRMFGLRVEDEGNYTCLFVTFPQGSRSVDIWLRVL
B24: variant CD155 IgV-Fc S42G (Fc fusion, not shown: a dimerising Fc or GST)
chain: B23 chain with C42G, L52S
B25: variant CD155 IgV-Fc L104Q (Fc fusion, not shown: a dimerising Fc or GST)
chain: B23 chain with C42S, L52S, L104Q
B26: variant CD155 IgV-Fc S52M/V57L (Fc fusion, not shown: a dimerising Fc or GST)
chain: B23 chain with C42S, L52M, V57L
B27: WT CD80 ECD-Fc H22.6 (Fc fusion, not shown: a dimerising Fc or GST)
chain: VIHVTKEVKEVATLSCGHNVSVEELAQTRIYWQKEKKMVLTMMSGDMNIWPEYKNRTIFDITNNLSIVILALRPSDEGTYECVVLKYEKDAFKREHLAEVTLSVKADFPTPSISDFEIPTSNIRRIICSTSGGFPEPHLSWLENGEELNAINTTVSQDPETELYAVSSKLDFNMTTNHSFMCLIKYGHLRVNQTFNWNTTKQEHFPDN
notes: Control; The token H22.6 is not explained
B28: variant CD155 IgV-Fc L104E (Fc fusion, not shown: a dimerising Fc or GST)
chain: B23 chain with C42S, L52S, L104E

molecular target: T3, CD28 endogenously expressed on Jurkat/IL2 reporter cells (human, UniProt P10747 19-220); assay: flow cytometry, Jurkat cells (CD28)
T3 construct: also called Jurkats (CD28)

MFI at 33.3 nM [MFI] | Binder
309 | B1
556 | B2
35 | B3
2180 | B4
134 | B5
88.1 | B6
567 | B7
196 | B8
131 | B9

molecular target: T4, human CTLA4 (CTLA-4), full-length, on CHO cells (human, UniProt P16410 36-223); assay: flow cytometry, CHO cells stably expressing CTLA4
T4 construct: also called huCTLA4
T4 sequence (P16410 36-223): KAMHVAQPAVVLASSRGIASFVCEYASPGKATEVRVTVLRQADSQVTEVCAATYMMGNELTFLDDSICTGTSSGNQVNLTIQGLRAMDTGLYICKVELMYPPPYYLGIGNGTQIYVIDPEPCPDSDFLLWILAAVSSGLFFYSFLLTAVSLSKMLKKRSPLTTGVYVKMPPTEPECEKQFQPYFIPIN

MFI at 33.3 nM [MFI] | Binder
30800 | B1
34300 | B10
5330 | B2
3000 | B3
50100 | B11
34700 | B4
32500 | B12
31200 | B13
49700 | B14
45000 | B15
42900 | B5
40200 | B7
48000 | B8
41900 | B9
7570 | B16
32200 | B17

molecular target: T5, human PD-L1 (full-length, expressed on CHO cells) (human, UniProt Q9NZQ7 19-290); assay: flow cytometry, CHO cells expressing huPD-L1, PE anti-human Fc
T5 construct: also called huPD-L1; CD274
T5 sequence (Q9NZQ7 19-290): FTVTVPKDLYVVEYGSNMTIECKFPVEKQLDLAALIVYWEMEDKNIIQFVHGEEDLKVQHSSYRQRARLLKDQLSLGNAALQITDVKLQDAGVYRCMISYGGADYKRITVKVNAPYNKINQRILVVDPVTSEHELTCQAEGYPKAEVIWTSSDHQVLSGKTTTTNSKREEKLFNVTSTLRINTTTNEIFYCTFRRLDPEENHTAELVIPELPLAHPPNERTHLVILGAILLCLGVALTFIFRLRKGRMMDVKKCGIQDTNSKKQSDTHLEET

MFI at 33.3 nM [MFI] | Binder
44400 | B18
39100 | B19
36100 | B20
36900 | B21

molecular target: T6, CD28 (endogenously expressed on Jurkat/IL2 reporter cells) (human, UniProt P10747 19-220); assay: flow cytometry, Jurkat/IL2 reporter cells (endogenous CD28), PE anti-human Fc
T6 construct: Endogenous CD28 of Jurkat cells; also called human CD28

MFI at 33.3 nM [MFI] | Binder
258 | B18
276 | B19
266 | B22
282 | B20

molecular target: T4, human CTLA4 (CTLA-4), full-length, on …; assay: flow cytometry, CHO/CTLA4 cells; MFI relative to WT CD80 ECD-Fc

Fold change to WT CD80 [fold] | Binder
0.8 | B1
0.1 | B2
0.9 | B4
1.1 | B5
1 | B7
1.2 | B8
1 | B9

molecular target: T7, human PD-L1, full-length, on CHO cells (human, UniProt Q9NZQ7 19-290); assay: flow cytometry, CHO/PD-L1 cells; MFI relative to WT CD80 ECD-Fc
T7 construct: also called huPD-L1; CD274
T7 sequence (Q9NZQ7 19-290): as above

Fold change to WT CD80 [fold] | Binder
14.8 | B1
17.7 | B2
219 | B4
20.2 | B5
46.7 | B7
31.6 | B8
17.2 | B9

molecular target: T3, CD28 endogenously expressed on …; assay: flow cytometry, Jurkat cells (CD28); MFI relative to WT CD80 ECD-Fc

Fold change to WT CD80 [fold] | Binder
0.4 | B1
0.8 | B2
3.1 | B4
0.2 | B5
0.8 | B7
0.3 | B8
0.2 | B9

molecular target: T7, human PD-L1, full-length, on CHO cells; assay: flow cytometry; PD-L1 MFI over CD28 MFI

Ratio of PDL1:CD28 [ratio] | Binder
6.1 | B1
4.1 | B2
12.8 | B4
19.3 | B5
10.5 | B7
20.6 | B8
16.8 | B9

molecular target: T1, CD226; assay: flow cytometry, Fc fusion at 100 nM, CD226-transfected cells

MFI at 100 nM [MFI] | Binder
2150 | B23
2450 | B24
3790 | B25
2430 | B26

molecular target: T8, CD28 on Jurkat/IL2 reporter cells (human, UniProt P10747 19-220); assay: flow cytometry, Jurkat cells (CD28)
T8 construct: whole, on cells; Endogenous CD28 of Jurkat cells; also called Jurkats (CD28)

MFI at 33.3 nM [MFI] | Binder
43 | B27

molecular target: T7, human PD-L1, full-length, on CHO cells; assay: flow cytometry, CHO cells stably expressing PD-L1

MFI at 33.3 nM [MFI] | Binder
1900 | B1
29300 | B10
2270 | B2
97 | B3
3970 | B11
28000 | B4
29700 | B12
26100 | B13
3900 | B14
7990 | B15
2580 | B5
5800 | B6
5980 | B7
4040 | B8
2200 | B9
4170 | B16
23600 | B17

molecular target: T2, CD96; assay: flow cytometry, Fc fusion at 100 nM, CD96-transfected cells

MFI at 100 nM [MFI] | Binder
1560 | B28
1480 | B23
1700 | B24
1540 | B25
1860 | B26
